# From patent US9637764B2, “Methods of producing 7-carbon chemicals via carbon chain elongation associated with cyclohexane carboxylate synthesis” (INVISTA North America S.á r.l., priority 2012, dated 2017)
# B1: SEQ ID NO 13: Vibrio fluvialis ω-transaminase, Genbank Accession No. AEA39183.1 (protein, listed as Vibrio fluvialis)
# chain: MNKPQSWEARAETYSLYGFTDMPSLHQRGTVVVTHGEGPYIVDVNGRRYLDANSGLWNMVAGFDHKGLIDAAKAQYERFPGYHAFFGRMSDQTVMLSEKLVEVSPFDSGRVFYTNSGSEANDTMVKMLWFLHAAEGKPQKRKILTRWNAYHGVTAVSASMTGKPYNSVFGLPLPGFVHLTCPHYWRYGEEGETEEQFVARLARELEETIQREGADTIAGFFAEPVMGAGGVIPPAKGYFQAILPILRKYDIPVISDEVICGFGRTGNTWGCVTYDFTPDAIISSKNLTAGFFPMGAVILGPELSKRLETAIEAIEEFPHGFTASGHPVGCAIALKAIDVVMNEGLAENVRRLAPRFEERLKHIAERPNIGEYRGIGFMWALEAVKDKASKTPFDGNLSVSERIANTCTDLGLICRPLGQSVVLCPPFILTEAQMDEMFDKLEKALDKVFAEVA
# B2: SEQ ID NO 10: Pseudomonas syringae ω-transaminase, Genbank Accession No. AAY39893.1 (protein, listed as Pseudomonas syringae)
# chain: MSANNPQTLEWQALSSEHHLAPFSDYKQLKEKGPRIITRAEGVYLWDSEGNKILDGMSGLWCVAIGYGREELADAASKQMRELPYYNLFFQTAHPPVLELAKAISDIAPEGMNHVFFTGSGSEGNDTMLRMVRHYWALKGQPNKKTIISRVNGYHGSTVAGASLGGMTYMHEQGDLPIPGVVHIPQPYWFGEGGDMTPDEFGIWAAEQLEKKILELGVENVGAFIAEPIQGAGGVIVPPDSYWPKIKEILSRYDILFAADEVICGFGRTSEWFGSDFYGLRPDMMTIAKGLTSGYVPMGGLIVRDEIVAVLNEGGDFNHGFTYSGHPVAAAVALENIRILREEKIVERVRSETAPYLQKRLRELSDHPLVGEVRGVGLLGAIELVKDKTTRERYTDKGAGMICRTFCFDNGLIMRAVGDTMIIAPPLVISFAQIDELVEKARTCLDLTLAVLQG
# B3: SEQ ID NO 3: Mycobacterium smegmatis carboxylate reductase, Genbank Accession No. ABK71854.1 (protein, listed as Mycobacterium smegmatis)
# chain: MTSDVHDATDGVTETALDDEQSTRRIAELYATDPEFAAAAPLPAVVDAAHKPGLRLAEILQTLFTGYGDRPALGYRARELATDEGGRTVTRLLPRFDTLTYAQVWSRVQAVAAALRHNFAQPIYPGDAVATIGFASPDYLTLDLVCAYLGLVSVPLQHNAPVSRLAPILAEVEPRILTVSAEYLDLAVESVRDVNSVSQLVVFDHHPEVDDHRDALARAREQLAGKGIAVTTLDAIADEGAGLPAEPIYTADHDQRLAMILYTSGSTGAPKGAMYTEAMVARLWTMSFITGDPTPVINVNFMPLNHLGGRIPISTAVQNGGTSYFVPESDMSTLFEDLALVRPTELGLVPRVADMLYQHHLATVDRLVTQGADELTAEKQAGAELREQVLGGRVITGFVSTAPLAAEMRAFLDITLGAHIVDGYGLTETGAVTRDGVIVRPPVIDYKLIDVPELGYFSTDKPYPRGELLVRSQTLTPGYYKRPEVTASVFDRDGYYHTGDVMAETAPDHLVYVDRRNNVLKLAQGEFVAVANLEAVFSGAALVRQIFVYGNSERSFLLAVVVPTPEALEQYDPAALKAALADSLQRTARDAELQSYEVPADFIVETEPFSAANGLLSGVGKLLRPNLKDRYGQRLEQMYADIAATQANQLRELRRAAATQPVIDTLTQAAATILGTGSEVASDAHFTDLGGDSLSALTLSNLLSDFFGFEVPVGTIVNPATNLAQLAQHIEAQRTAGDRRPSFTTVHGADATEIRASELTLDKFIDAETLRAAPGLPKVTTEPRTVLLSGANGWLGRFLTLQWLERLAPVGGTLITIVRGRDDAAARARLTQAYDTDPELSRRFAELADRHLRVVAGDIGDPNLGLTPEIWHRLAAEVDLVVHPAALVNHVLPYRQLFGPNVVGTAEVIKLALTERIKPVTYLSTVSVAMGIPDFEEDGDIRTVSPVRPLDGGYANGYGNSKWAGEVLLREAHDLCGLPVATFRSDMILAHPRYRGQVNVPDMFTRLLLSLLITGVAPRSFYIGDGERPRAHYPGLTVDFVAEAVTTLGAQQREGYVSYDVMNPHDDGISLDVFVDWLIRAGHPIDRVDDYDDWVRRFETALTALPEKRRAQTVLPLLHAFRAPQAPLRGAPEPTEVFHAAVRTAKVGPGDIPHLDEALIDKYIRDLREFGLI
# B4: SEQ ID NO 8: Chromobacterium violaceum ω-transaminase, Genbank Accession No. AAQ59697.1 (protein, listed as Chromobacterium violaceum)
# chain: MQKQRTTSQWRELDAAHHLHPFTDTASLNQAGARVMTRGEGVYLWDSEGNKIIDGMAGLWCVNVGYGRKDFAEAARRQMEELPFYNTFFKTTHPAVVELSSLLAEVTPAGFDRVFYTNSGSESVDTMIRMVRRYWDVQGKPEKKTLIGRWNGYHGSTIGGASLGGMKYMHEQGDLPIPGMAHIEQPWWYKHGKDMTPDEFGVVAARWLEEKILEIGADKVAAFVGEPIQGAGGVIVPPATYWPEIERICRKYDVLLVADEVICGFGRTGEWFGHQHFGFQPDLFTAAKGLSSGYLPIGAVFVGKRVAEGLIAGGDFNHGFTYSGHPVCAAVAHANVAALRDEGIVQRVKDDIGPYMQKRWRETFSRFEHVDDVRGVGMVQAFTLVKNKAKRELFPDFGEIGTLCRDIFFRNNLIMRACGDHIVSAPPLVMTRAEVDEMLAVAERCLEEFEQTLKARGLA
# Tests used:
# Format in all cases: biochemical
# [1] = ω-transaminase activity assay, forward direction (pimelate semialdehyde to 7-aminoheptanoate), pyruvate formation by RP-HPLC; conditions: for ω-transaminase activity for converting pimelate semialdehyde to 7-aminoheptanoate: cell free extract, 10 mM pimelate semialdehyde, 10 mM L-alanine, pH=7.5, 25° C., 4 h, against the empty vector control, FIG. 16; for ω-transaminase accepts pimelate semialdehyde and synthesizes 7-aminoheptanoate, concluded from the reversibility of the activity: conclusion from confirmed reversibility
# Method: (§1) A sequence encoding an N-terminal His-tag was added to the genes from Chromobacterium violaceum, Pseudomonas syringae, Rhodobacter sphaeroides, and Vibrio Fluvialis encoding the ω-transaminases of SEQ ID NOs: 8, 10, 11 and 13, respectively (see FIGS. 7F and 7G) such that N-terminal HIS tagged ω-transaminases could be produced. Each of the resulting modified genes was cloned into a pET21a expression vector under control of the T7 promoter and each expression vector was transformed into a BL21[DE3] E. coli host. The resulting recombinant E. coli strains were cultivated at 37° C. in a 250 mL shake flask culture containing 50 mL LB media and antibiotic selection pressure, with shaking at 230 rpm. Each culture was induced overnight at 16° C. using 1 mM IPTG.
# (§2) The pellet from each induced shake flask culture was harvested via centrifugation. Each pellet was resuspended and lysed via sonication. The cell debris was separated from the supernatant via centrifugation and the cell free extract was used immediately in enzyme activity assays.
# Enzyme activity in the forward direction (i.e., pimelate semialdehyde to 7-aminoheptanoate) was confirmed for the transaminases of SEQ ID NO 10, SEQ ID NO 11 and SEQ ID NO 13. Enzyme activity assays were performed in a buffer composed of a final concentration of 50 mM HEPES buffer (pH=7.5), 10 mM pimelate semialdehyde, 10 mM L-alanine and 100 μM pyridoxyl 5′ phosphate. Each enzyme activity assay reaction was initiated by adding a cell free extract of the ω-transaminase gene product or the empty vector control to the assay buffer containing the pimelate semialdehyde and incubated at 25° C. for 4 h, with shaking at 250 rpm. The formation of pyruvate was quantified via RP-HPLC.
# [2] = ω-transaminase activity assay, reverse direction (7-aminoheptanoate to pimelate semialdehyde), L-alanine formation by RP-HPLC; conditions: cell free extract, 10 mM 7-aminoheptanoate, 10 mM pyruvate, pH=7.5, 25° C., 4 h; against the empty vector control; FIG. 15
# Method: as §1, §2
# Enzyme activity assays in the reverse direction (i.e., 7-aminoheptanoate to pimelate semialdehyde) were performed in a buffer composed of a final concentration of 50 mM HEPES buffer (pH=7.5), 10 mM 7-aminoheptanoate, 10 mM pyruvate and 100 μM pyridoxyl 5′ phosphate. Each enzyme activity assay reaction was initiated by adding cell free extract of the ω-transaminase gene product or the empty vector control to the assay buffer containing the 7-aminoheptanoate and incubated at 25° C. for 4 h, with shaking at 250 rpm. The formation of L-alanine from pyruvate was quantified via RP-HPLC.
# [3] = ω-transaminase activity assay, 7-aminoheptanol to 7-oxoheptanol, L-alanine formation by RP-HPLC; conditions: for ω-transaminase activity for converting 7-aminoheptanol to 7-oxoheptanol: cell free extract, 10 mM 7-aminoheptanol, 10 mM pyruvate, pH=7.5, 25° C., 4 h, against the empty vector control, FIG. 19; for ω-transaminase accepts 7-oxoheptanol and forms 7-aminoheptanol, concluded from reversibility: conclusion given the reversibility of the ω-transaminase activity (Example 2)
# Method: A nucleotide sequence encoding an N-terminal His-tag was added to the Chromobacterium violaceum, Pseudomonas syringae and Rhodobacter sphaeroides genes encoding the ω-transaminases of SEQ ID NOs: 8, 10 and 11, respectively (see FIGS. 7F and 7G) such that N-terminal HIS tagged ω-transaminases could be produced. The modified genes were cloned into a pET21a expression vector under the T7 promoter. Each expression vector was transformed into a BL21[DE3] E. coli host. Each resulting recombinant E. coli strain were cultivated at 37° C. in a 250 mL shake flask culture containing 50 mL LB media and antibiotic selection pressure, with shaking at 230 rpm. Each culture was induced overnight at 16° C. using 1 mM IPTG.
# as §2
# Enzyme activity assays in the reverse direction (i.e., 7-aminoheptanol to 7-oxoheptanol) were performed in a buffer composed of a final concentration of 50 mM HEPES buffer (pH=7.5), 10 mM 7-aminoheptanol, 10 mM pyruvate, and 100 μM pyridoxyl 5′ phosphate. Each enzyme activity assay reaction was initiated by adding cell free extract of the ω-transaminase gene product or the empty vector control to the assay buffer containing the 7-aminoheptanol and then incubated at 25° C. for 4 h, with shaking at 250 rpm. The formation of L-alanine was quantified via RP-HPLC.
# [4] = Carboxylate reductase activity assay, N7-acetyl-7-aminoheptanoate to N7-acetyl-7-aminoheptanal (NADPH consumption, absorbance at 340 nm); conditions: purified enzyme enhanced by the gene product of sfp, 2 mM N7-acetyl-7-aminoheptanoate, 1 mM ATP, 1 mM NADPH, pH=7.5, room temperature, 20 min; against the empty vector control; FIG. 12
# Method: The activity of each of the N-terminal His-tagged carboxylate reductases of SEQ ID NOs: 3, 6, and 7 (see Examples 4, and FIGS. 7B, 7E, and 7F) for converting N7-acetyl-7-aminoheptanoate to N7-acetyl-7-aminoheptanal was assayed in triplicate in a buffer composed of a final concentration of 50 mM HEPES buffer (pH=7.5), 2 mM N7-acetyl-7-aminoheptanoate, 10 mM MgCl2, 1 mM ATP, and 1 mM NADPH. The assays were initiated by adding purified carboxylate reductase and phosphopantetheine transferase or the empty vector control to the assay buffer containing the N7-acetyl-7-aminoheptanoate then incubated at room temperature for 20 min. The consumption of NADPH was monitored by absorbance at 340 nm.
Molecule,ω-transaminase activity for converting pimelate semialdehyde to 7-aminoheptanoate [1],"ω-transaminase accepts pimelate semialdehyde and synthesizes 7-aminoheptanoate, concluded from the reversibility of the activity [1]",ω-transaminase activity for converting 7-aminoheptanoate to pimelate semialdehyde [2],ω-transaminase activity for converting 7-aminoheptanol to 7-oxoheptanol [3],"ω-transaminase accepts 7-oxoheptanol and forms 7-aminoheptanol, concluded from reversibility [3]",carboxylate reductase activity for converting N7-acetyl-7-aminoheptanoate to N7-acetyl-7-aminoheptanal [4]
"SEQ ID NO 11: Rhodobacter sphaeroides ω-transaminase, Genbank Accession No. ABA81135.1",accepted pimelate semialdehyde as substrate,accepted pimelate semialdehyde as substrate and synthesized 7-aminoheptanoate,accepted 7-aminoheptanote as substrate,accepted 7-aminoheptanol as substrate,accept 7-oxoheptanol as substrate,
B1,accepted pimelate semialdehyde as substrate,accepted pimelate semialdehyde as substrate and synthesized 7-aminoheptanoate,accepted 7-aminoheptanote as substrate,,,
B2,accepted pimelate semialdehyde as substrate,accepted pimelate semialdehyde as substrate and synthesized 7-aminoheptanoate,accepted 7-aminoheptanote as substrate,accepted 7-aminoheptanol as substrate,accept 7-oxoheptanol as substrate,
B3,,,,,,accepted N7-acetyl-7-aminoheptanoate as substrate
B4,,accepted pimelate semialdehyde as substrate and synthesized 7-aminoheptanoate,accepted 7-aminoheptanote as substrate,accepted 7-aminoheptanol as substrate,accept 7-oxoheptanol as substrate,
